Here are results for 98 substances from the supplement of paper PMC12042874.

± gives the uncertainty stated by the source.

A short description of this data set: amyloid nucleation score (Sup35N fusion, yeast selection) (log enrichment); library NNK3; higher = more nucleation; inactive = no reads after selection. Summed up: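 The nucleation score is the log enrichment of output over input reads, calculated with DiMSum and centred on the mode score of non-aggregating sequences. Sequences with under 100 input reads were excluded. Reads came from Illumina sequencing of plasmid inserts from psi-negative yeast expressing Sup35N fused to peptides of 20 random codons, induced 24 hours with 100 μM copper sulfate and grown 7 days at 30°C without adenine and uracil.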

The substance CYNDRFFIVSIYRDQ registered an amyloid nucleation score of 1.07 ± 0.1.
For the substance WVRVVFSGSRYRTVCSGSRC, the amyloid nucleation score was -0.788 ± 1.4.
In the case of CHASVW, the amyloid nucleation score entry was “inactive”.
For the substance VDKWDCLSYSNIVGLMRLDV, the amyloid nucleation score result was “inactive”.
Turning to ELDAYIRRGLCSLKWCRKLN, the amyloid nucleation score result was “inactive”.
With TCSVCMGQVTMVIRYVNSNC, the amyloid nucleation score entry is “inactive”.
Take VPKAYR: the amyloid nucleation score entry was “inactive”.
Consider VVGKFSTADILSFR, for which the amyloid nucleation score result is “inactive”.
Take IFVGVSYVHFRLEH: the amyloid nucleation score turned out to be 1.8 ± 0.099.
Next, RHISRRRLREVGVCRLKVML: “inactive”; FRSAYDYNFC: “inactive”.
Regarding GLLSHLDHLWVCGGWGSRKR, the amyloid nucleation score entry is “inactive”.
As to PGVDERT, the amyloid nucleation score entry is “inactive”.
As to ITSCRWVALKYLWSVFSLLI, the amyloid nucleation score entry was “inactive”.
Under YYLDRVYIFSTQDL stands 1.67 ± 0.065; under CGDLVGTSKYSTLLEWRS, “inactive”; under GYTIYGRVNPLVCPWVLVSE, “inactive”.
In the case of KKGGVVINVSTNRIRTLTCP, the amyloid nucleation score entry was “inactive”.
With SLSSIGSDFNGGC, the amyloid nucleation score result is “inactive”.
As to SFKNNL, the amyloid nucleation score entry is “inactive”.
Take ICTGDSNNSGYVCQLVTKEE: the amyloid nucleation score entry is “inactive”.
Turning to TARYIW, the amyloid nucleation score entry is “inactive”.
On to LHCFIAQFMQRYFREWSGNG, for which the amyloid nucleation score entry was “inactive”.
Turning to MNLDVWSFMSMFNSFRVWVQ, the amyloid nucleation score entry was “inactive”.
Take LSYESCFGSHVGMRAEGCSR: the amyloid nucleation score was -0.485 ± 1.2.
In the case of TFFWLLCN, the amyloid nucleation score result is “inactive”.
Turning to CSAYNLSYHGGRDVRCRNTF, the amyloid nucleation score entry is “inactive”.
For TSILPRSGANVKQLLLVLFV, the amyloid nucleation score entry is “inactive”.
As for VIGVCFSKFWWNTHDTRSDS, the amyloid nucleation score was 0.665 ± 0.23.
In the case of VMCLPLPKFI, the amyloid nucleation score result is “inactive”.
Regarding RVPIYVHKI, the amyloid nucleation score result was “inactive”.
In the case of DEKIGGTVKYGVVQAYV, the amyloid nucleation score entry is “inactive”.
For the substance IIYVNTSEGVSVFRNWSDDV, the amyloid nucleation score entry is “inactive”.
In turn, GEISWDC came in with an amyloid nucleation score of 0.283 ± 0.3.
As for DYEHSGSCKIDFVTL, the amyloid nucleation score entry is “inactive”.
For the substance LGYDRQGLLTEVYRFSYIIL, the amyloid nucleation score result is “inactive”.
Next, RDYFAYNCMVWMGTIQLYPG: 1.83 ± 0.056; YRSLITLQAIRCGIWFCGLW: “inactive”.
On to AFVKFSRTWSSVSSLCGFQA, for which the amyloid nucleation score result was “inactive”.
In the case of HRDCRKFCSMNTHANMNMLS, the amyloid nucleation score result was “inactive”.
ISISLLFGMTFTSFSRLIHF came in with an amyloid nucleation score of 1.42 ± 0.11.
Next, MAPVGL: “inactive”; LYHRAIGRSRQRENPSQKGG: -0.048 ± 0.39.
In the case of YLICDFTFYVRGGGGMSQMT, the amyloid nucleation score turned out to be 0.655 ± 0.28.
As for IMEFYERMLFL, the amyloid nucleation score entry was “inactive”.
Take LPLVVIFQLSTYVRQWYA: the amyloid nucleation score amounted to 0.618 ± 0.28.
Under VFKFALFTGTLLWLDHCVVS stands 1.51 ± 0.14; under DRHLAINERARLVAWFYYDF, “inactive”; under FHVYCVWVRTLSCWRENNVK, 1.5 ± 0.14.
CWRCFSAD gave an amyloid nucleation score of 0.041 ± 0.6.
Next, WCKVRYSTNMVTSTSATLVA: “inactive”; TWFYQ: “inactive”.
As to WLGWPD, the amyloid nucleation score entry was “inactive”.
Regarding STSYSSAL, the amyloid nucleation score result is “inactive”.
On to YYMNVESALECECWTIFKPC, for which the amyloid nucleation score entry was “inactive”.
Turning to LSRMTRESKPQEISAQARLD, the amyloid nucleation score turned out to be 1.14 ± 0.13.
Regarding NLSVGRALTWHPSPWDQQIW, the amyloid nucleation score result is “inactive”.
Turning to LGSFNDVWIVCADWFAFLKV, the amyloid nucleation score entry is “inactive”.
Next, LSGFDFAL: “inactive”; TLLPAVQIWHDIKHSTRTSW: “inactive”; MIRLNNRARRNLLRLRVDRQ: “inactive”.
With DNKSL, the amyloid nucleation score result is “inactive”.
Substance YFKWVFKSYKPV showed an amyloid nucleation score of 1.35 ± 0.12.
For the substance VYRFGMVLRNVHLFRLLIGG, the amyloid nucleation score result is “inactive”.
Take TYVARIVN: the amyloid nucleation score result was “inactive”.
In the case of LDTYCIVDRDNRCGRNVVLY, the amyloid nucleation score entry is “inactive”.
Under NLDRLWTNQGFAFWIRTYVV stands “inactive”; under YMYELVTSRFKRNQVMCVID, “inactive”; under LDHIGKFLFRVTGCCITFTR, “inactive”.
MGFASSLSWSL: the amyloid nucleation score result is “inactive”.
Next, RVPCNETELCMFYRSGLLLL: “inactive”.
Next, CEGRHKFF: “inactive”; MFRLVSGTEGLRLREVWC: -0.469 ± 1.1.
Under EGYQVFFNDLVLTLVMRVEV stands “inactive”; under WDKSLSVRTQVCHNRDS, “inactive”; under YRMIKHRTFDSPVLFS, “inactive”.
For VCRFPRFFWTCYSDVLHCFS, the amyloid nucleation score result is “inactive”.
The substance GHLESVFRSVDTLVSYSS gave an amyloid nucleation score of 0.138 ± 0.55.
Take SYRLCCSMIGFSTGGRSHVE: the amyloid nucleation score result is “inactive”.
Regarding NMGALIRSRQVEVSHKRVSG, the amyloid nucleation score entry was “inactive”.
With LGRKNGGAVNVRRPHFDWDG, the amyloid nucleation score result is “inactive”.
SLISNCPIVWNRIWISYHFH came in with an amyloid nucleation score of 0.738 ± 0.3.
CCKSCSTLFLNFSLFNDLLT: the amyloid nucleation score result was “inactive”.
SRCSSGRLCWRFASHSRGTS registered an amyloid nucleation score of -0.826 ± 1.4.
On to LREQGRNTSR, for which the amyloid nucleation score entry was “inactive”.
GQTILC: the amyloid nucleation score entry was “inactive”.
Consider FFYEPGVPRFYFQLFLLLSF, for which the amyloid nucleation score result is “inactive”.
Turning to KYRFLSKSRMRGSACHGKDQ, the amyloid nucleation score entry is “inactive”.
As to YYVYSRGALLYHYILQMARL, the amyloid nucleation score entry is “inactive”.
The substance LINEECFFACVEVIGNVFRV returned an amyloid nucleation score of -0.888 ± 1.1.
On to SRITLPDIIMFHCMFNGTDV, for which the amyloid nucleation score amounted to 0.339 ± 0.67.
In the case of SMYDKGMGYTCVKSSVNLFV, the amyloid nucleation score result is “inactive”.
Take SVLCMGLHEIQYIRRFCRHW: the amyloid nucleation score entry is “inactive”.
As for HCRAYITEPCKTWLY, the amyloid nucleation score result was “inactive”.
In the case of WNPYAIARKAIVRGSVKWGV, the amyloid nucleation score entry was “inactive”.
Under LFVYVIQYVISVI stands 0.74 ± 0.14.
Regarding IVEHIFDRGVSLEVMMMCYR, the amyloid nucleation score result was “inactive”.
For the substance NVLQYYNRLGTSRCIRAAFL, the amyloid nucleation score result is “inactive”.
